Laboratory results as given in US20250262316A1 (BIO THERA SOLUTIONS, published 2025).

Legend:
[1] = target: T1, B7-H3 on MDA-MB-468 cells (human, UniProt Q5ZPR3); assay: flow cytometry on MDA-MB-468 cells; blank V2-R 0.9%
T1 construct: endogenous, on the cell surface
T1 sequence (cell surface antigen, looked up): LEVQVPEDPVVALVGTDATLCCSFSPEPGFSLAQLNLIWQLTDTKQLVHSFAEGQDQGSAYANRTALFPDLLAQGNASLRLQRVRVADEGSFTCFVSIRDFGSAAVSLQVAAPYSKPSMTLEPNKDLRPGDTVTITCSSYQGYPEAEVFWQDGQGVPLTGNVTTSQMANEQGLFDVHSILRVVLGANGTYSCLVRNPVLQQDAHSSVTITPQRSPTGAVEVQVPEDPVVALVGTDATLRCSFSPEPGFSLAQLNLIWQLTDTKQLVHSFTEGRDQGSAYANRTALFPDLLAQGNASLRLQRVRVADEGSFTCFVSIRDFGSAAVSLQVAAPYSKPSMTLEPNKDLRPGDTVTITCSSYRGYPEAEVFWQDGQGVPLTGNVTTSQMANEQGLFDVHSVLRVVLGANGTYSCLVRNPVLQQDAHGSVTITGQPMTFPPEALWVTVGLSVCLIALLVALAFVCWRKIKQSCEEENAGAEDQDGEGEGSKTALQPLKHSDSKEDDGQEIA

[2] = target: T2, antigen hB7-H3-His (human, UniProt Q5ZPR3 29-461); assay: SPR, BiaCore T200, antibody captured on Protein A chip, hB7-H3-His as analyte, 1:1 model
T2 construct: residues 1-28 are left out on that ground
T2 sequence: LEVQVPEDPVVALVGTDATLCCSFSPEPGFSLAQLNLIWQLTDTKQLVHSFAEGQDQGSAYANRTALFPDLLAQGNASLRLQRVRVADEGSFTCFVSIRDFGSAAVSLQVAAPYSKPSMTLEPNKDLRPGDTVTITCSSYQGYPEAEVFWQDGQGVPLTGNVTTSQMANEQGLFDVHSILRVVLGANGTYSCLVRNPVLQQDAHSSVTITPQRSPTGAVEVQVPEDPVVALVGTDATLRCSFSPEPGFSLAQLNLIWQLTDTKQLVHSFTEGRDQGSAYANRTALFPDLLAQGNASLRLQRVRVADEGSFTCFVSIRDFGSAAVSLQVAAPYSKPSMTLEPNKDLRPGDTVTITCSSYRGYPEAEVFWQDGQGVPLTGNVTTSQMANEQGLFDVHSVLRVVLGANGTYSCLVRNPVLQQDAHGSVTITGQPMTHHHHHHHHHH

[3] = target: T3, Tim3 (NCBI Reference Sequence: NP_116171.3) on Tim3-CHO cells (UniProt Q8TDQ0 22-301, limits assumed); assay: flow cytometry on Tim3-CHO cells, PE anti-human IgG Fc secondary
T3 construct: whole, on cells

[4] = target: T4, Lag3 (NCBI Reference Sequence: NP_002277.4) on Lag3-CHO cells (UniProt P18627 23-525, limits assumed); assay: flow cytometry on Lag3-CHO cells, PE anti-human IgG Fc secondary
T4 construct: whole, on cells
T4 sequence (looked up): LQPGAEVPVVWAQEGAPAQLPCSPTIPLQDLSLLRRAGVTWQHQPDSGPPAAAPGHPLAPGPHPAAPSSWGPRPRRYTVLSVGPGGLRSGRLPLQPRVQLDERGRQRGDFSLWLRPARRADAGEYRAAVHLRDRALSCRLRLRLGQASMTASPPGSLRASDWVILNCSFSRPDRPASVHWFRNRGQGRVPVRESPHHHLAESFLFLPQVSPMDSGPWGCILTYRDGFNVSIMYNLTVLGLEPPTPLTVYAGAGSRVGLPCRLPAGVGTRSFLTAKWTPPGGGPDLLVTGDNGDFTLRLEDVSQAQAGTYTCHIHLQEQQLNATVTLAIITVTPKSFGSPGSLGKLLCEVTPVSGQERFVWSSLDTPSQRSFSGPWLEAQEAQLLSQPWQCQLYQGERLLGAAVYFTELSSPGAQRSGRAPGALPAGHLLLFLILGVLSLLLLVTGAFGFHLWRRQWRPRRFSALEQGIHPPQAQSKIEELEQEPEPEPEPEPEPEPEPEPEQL

[5] = target: T5, hB7-H3-Fc; assay: ELISA on coated hB7-H3-Fc (2 ug/mL), HRP anti-human kappa secondary, A450, antibody from 300 nM in 3-fold dilutions; axis 'Concentration' has no unit, nM from p-1066
T5 construct: also called antigen hB7-H3-Fc

[6] = target: T1, B7-H3 on MDA-MB-468 cells; assay: flow cytometry on MDA-MB-468 cells, PE anti-human IgG Fc secondary, antibody from 100 nM in 3-fold dilutions; axis 'Concentration' has no unit, nM from p-1056
[7] = target: T6, VISTA (NCBI Reference Sequence: NP_071436.1) on VISTA-CHO cells (UniProt Q9H7M9 33-311, limits assumed); assay: flow cytometry on VISTA-CHO cells, PE anti-human IgG Fc secondary
T6 construct: whole, on cells

[8] = target: T7, B7-H3 on Calu-6 cells (UniProt Q5ZPR3 29-534, limits assumed); assay: cell-based or functional assay
T7 sequence (looked up): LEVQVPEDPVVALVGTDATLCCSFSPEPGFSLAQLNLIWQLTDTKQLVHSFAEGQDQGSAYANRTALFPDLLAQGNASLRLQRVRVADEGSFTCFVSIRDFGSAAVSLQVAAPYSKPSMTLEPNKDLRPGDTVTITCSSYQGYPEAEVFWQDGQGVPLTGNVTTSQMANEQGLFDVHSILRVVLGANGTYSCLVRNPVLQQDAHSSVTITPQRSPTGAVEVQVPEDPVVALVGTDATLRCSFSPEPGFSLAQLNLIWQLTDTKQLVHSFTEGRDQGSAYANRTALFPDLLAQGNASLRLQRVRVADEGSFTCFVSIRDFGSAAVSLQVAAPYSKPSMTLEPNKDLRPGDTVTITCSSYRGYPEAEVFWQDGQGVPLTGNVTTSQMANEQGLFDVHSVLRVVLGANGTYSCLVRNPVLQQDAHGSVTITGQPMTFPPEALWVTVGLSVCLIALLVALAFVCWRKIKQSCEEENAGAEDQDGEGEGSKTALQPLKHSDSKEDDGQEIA

[9] = target: T8, B7-H3 (NCBI Reference Sequence: NP_001019907.1) on CHO-K1-B7-H3 cells (human, UniProt Q5ZPR3 29-534); assay: cell-based or functional assay
T8 sequence: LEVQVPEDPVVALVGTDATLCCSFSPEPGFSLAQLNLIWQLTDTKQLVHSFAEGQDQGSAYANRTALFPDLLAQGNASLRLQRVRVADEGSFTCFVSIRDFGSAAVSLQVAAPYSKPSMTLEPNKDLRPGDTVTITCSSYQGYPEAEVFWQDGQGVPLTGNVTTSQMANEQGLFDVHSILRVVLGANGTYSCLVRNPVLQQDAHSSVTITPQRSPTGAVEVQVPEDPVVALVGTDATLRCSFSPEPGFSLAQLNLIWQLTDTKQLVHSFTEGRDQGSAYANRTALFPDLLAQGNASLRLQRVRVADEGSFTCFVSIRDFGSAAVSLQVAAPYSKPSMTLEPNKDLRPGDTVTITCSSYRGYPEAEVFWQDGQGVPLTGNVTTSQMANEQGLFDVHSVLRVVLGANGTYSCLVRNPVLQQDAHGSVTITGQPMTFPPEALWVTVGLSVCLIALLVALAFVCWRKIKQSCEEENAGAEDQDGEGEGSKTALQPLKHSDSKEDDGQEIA

[10] = target: T4, Lag3 (NCBI Reference Sequence: …); assay: flow cytometry on Lag3-CHO cells
[11] = target: T3, Tim3 (NCBI Reference Sequence: …); assay: flow cytometry on Tim3-CHO cells; blank P3 0.2%; the filing says V1-V5 did not bind
[12] = target: T3, Tim3 (NCBI Reference Sequence: …); assay: flow cytometry on Tim3-CHO cells
[13] = target: T9, mouse B7-H3 (SinoBiological, 50973-M08H) (mouse, UniProt Q8VE98 29-244); assay: ELISA, antigen coated at 2 µg/mL, Antibody V3 in 2-fold dilutions (EC50 cell in Table 12: NA)
T9 construct: Bought protein
T9 sequence (looked up): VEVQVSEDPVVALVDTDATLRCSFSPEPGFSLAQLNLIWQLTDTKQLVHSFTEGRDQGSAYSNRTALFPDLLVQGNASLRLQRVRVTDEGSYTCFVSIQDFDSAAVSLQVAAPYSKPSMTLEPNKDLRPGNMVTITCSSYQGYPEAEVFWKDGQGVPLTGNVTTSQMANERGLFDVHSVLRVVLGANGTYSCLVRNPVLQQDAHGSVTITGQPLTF

[14] = target: T6, VISTA (NCBI Reference Sequence: …); assay: flow cytometry on VISTA-CHO cells; blank P3 0.1%; the filing says V1-V5 did not bind
[15] = target: T2, antigen hB7-H3-His; assay: SPR, BiaCore T200, ADC or antibody captured on Protein A chip, hB7-H3-His as analyte, 1:1 model
[16] = target: T6, VISTA (NCBI Reference Sequence: …); assay: flow cytometry on VISTA-CHO cells
[17] = target: T2, antigen hB7-H3-His; assay: SPR, BiaCore T200, ADC or antibody captured on Protein A chip, hB7-H3-His as analyte, 1:1 model; naked Antibody V3, not conjugated
[18] = target: T2, antigen hB7-H3-His; assay: ELISA, antigen coated at 2 µg/mL, anti-human kappa light chain HRP detection
[19] = target: T10, cynomolgus monkey B7-H3 (novoprotein CA61) (cynomolgus monkey); assay: as above
T10 construct: Bought protein

[20] = target: T4, Lag3 (NCBI Reference Sequence: …); assay: flow cytometry on Lag3-CHO cells; blank P3 0.5%; the filing says V1-V5 did not bind

T5 sequence (fusion chain, as listed by the source limits assumed): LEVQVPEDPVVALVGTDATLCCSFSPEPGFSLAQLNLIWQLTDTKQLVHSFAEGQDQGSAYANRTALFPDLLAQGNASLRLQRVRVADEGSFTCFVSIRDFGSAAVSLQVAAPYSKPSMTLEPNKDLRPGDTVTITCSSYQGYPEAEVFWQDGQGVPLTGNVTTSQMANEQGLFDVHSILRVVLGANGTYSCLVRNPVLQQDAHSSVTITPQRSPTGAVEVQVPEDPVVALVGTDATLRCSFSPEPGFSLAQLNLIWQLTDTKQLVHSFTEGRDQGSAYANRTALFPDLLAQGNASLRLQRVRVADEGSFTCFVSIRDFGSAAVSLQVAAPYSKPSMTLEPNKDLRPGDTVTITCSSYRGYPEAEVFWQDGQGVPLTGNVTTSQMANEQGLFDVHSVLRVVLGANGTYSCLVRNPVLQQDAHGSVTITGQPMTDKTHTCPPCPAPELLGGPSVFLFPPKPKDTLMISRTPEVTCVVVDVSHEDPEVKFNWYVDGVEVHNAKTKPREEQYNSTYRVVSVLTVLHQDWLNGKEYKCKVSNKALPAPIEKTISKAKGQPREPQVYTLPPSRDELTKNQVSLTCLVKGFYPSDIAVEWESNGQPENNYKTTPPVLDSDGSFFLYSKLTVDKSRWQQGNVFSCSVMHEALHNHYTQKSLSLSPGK

B1: control Antibody M30-H1-L4 (antibody, human IgG1, kappa, V domains shown)
VH: QVQLVQSGAEVKKPGSSVKVSCKASGYTFTNYVMHWVRQAPGQGLEWMGYINPYNDDVKYNEKFKGRVTITADESTSTAYMELSSLRSEDTAVYYCARWGYYGSPLYYFDYWGQGTLVTVSS
VL: EIVLTQSPATLSLSPGERATLSCRASSRLIYMHWYQQKPGQAPRPLIYATSNLASGIPARFSGSGSGTDFTLTISSLEPEDFAVYYCQQWNSNPPTFGQGTKVEIKR
notes: Control anti-B7-H3 antibody
% of cells in gate V1-R at 0.411 nM [1]: 1.1%
% of cells in gate V1-R at 1.23 nM [1]: 4%
% of cells in gate V1-R at 3.7 nM [1]: 38.4%
% of cells in gate V1-R at 11.11 nM [1]: 97.2%
% of cells in gate V1-R at 33.33 nM [1]: 98.8%
% of cells in gate V1-R at 100 nM [1]: 99.3%
Kd [2]: 0.986 nM
koff [2]: 0.00024 s⁻¹
kon [2]: 244000 M⁻¹ s⁻¹
binding result [3]: no binding (tested: 100 nM)
binding result [4]: no binding (tested: 100 nM)
EC50 [5]: 3.73 nM
EC50 [6]: 8.54 nM
binding result [7]: no binding (tested: 100 nM)

B2: ADC2 (control drug) (antibody, human IgG1, kappa, V domains shown)
VH: EVQLVQSGAEVKKSGESLKISCKASGYTFTDYDINWVRQMPGKGLEWIGWIFPGDDTTKYNEKFKGQVTLSADKSTNTAYMQWSSLKASDTAMYYCARSPSFDYWGQGTLVTVSS
VL: QIVLTQSPGTLSLSPGERATLSCSASSTIGFMYWYQQKPGQAPRRWIYDTSKLASGVPDRFSGSGSGTDYTLTISRLEPEDFAVYYCHQRSSYPTFGQGTKVEIKR
modifications: MC-GGFG-DXD (Deruxtecan) conjugated after TCEP reduction; DAR (p) 3.7 for the whole antibody; sites not stated
IC50 (nM), in-vitro cytotoxicity, CCK8 [8]: 68.8 nM
IC50 (nM), in-vitro cytotoxicity, CCK8 [9]: 0.77 nM

B3: Antibody V3 (antibody, human IgG1, kappa, V domains shown)
VH: EVQLVQSGAEVKKSGESLKISCKASGYTFTDYDINWVRQMPGKGLEWIGWIFPGDDTTKYNEKFKGQVTLSADKSTNTAYMQWSSLKASDTAMYYCARSPSFDYWGQGTLVTVSS
VL: QIVLTQSPGTLSLSPGERATLSCSASSTIGFMYWYQQKPGQAPRRWIYDTSKLASGVPDRFSGSGSGTDYTLTISRLEPEDFAVYYCHQRSSYPTFGQGTKVEIKR
notes: Humanized from chimeric antibody M1; also called humanized antibody V3
binding result [10]: no binding (tested: 100 nM)
% of cells in gate P3 at 100 nM [11]: 0.4%
% of cells in gate V1-R at 0.411 nM [1]: 36.8%
% of cells in gate V1-R at 1.23 nM [1]: 86.4%
% of cells in gate V1-R at 3.7 nM [1]: 94%
% of cells in gate V1-R at 11.11 nM [1]: 97.2%
% of cells in gate V1-R at 33.33 nM [1]: 98.9%
% of cells in gate V1-R at 100 nM [1]: 99.6%
binding result [12]: no binding (tested: 100 nM)
binding result [13]: no binding (tested: initial concentration of 2 µg/mL)
EC50 [5]: 1.77 nM
% of cells in gate P3 at 100 nM [14]: 0.7%
koff [15]: 0.000155 s⁻¹
kon [15]: 886000 M⁻¹ s⁻¹
binding result [16]: no binding (tested: 100 nM)
Kd [17]: 0.175 nM
EC50 [18]: 0.042 µg/mL
EC50 [19]: 0.042 µg/mL
% of cells in gate P3 at 100 nM [20]: 0.6%
